Consider one molecule from patent EP1789452B1 (Janssen Pharmaceutica NV, dated 2006).

A word on the IC50: it is the midpoint of a concentration-inhibition curve.

Test [1] deals with T1, human GPCR135 (human, UniProt Q9NSD7 1-469).
T1 construct: also called SALPR
T1 sequence: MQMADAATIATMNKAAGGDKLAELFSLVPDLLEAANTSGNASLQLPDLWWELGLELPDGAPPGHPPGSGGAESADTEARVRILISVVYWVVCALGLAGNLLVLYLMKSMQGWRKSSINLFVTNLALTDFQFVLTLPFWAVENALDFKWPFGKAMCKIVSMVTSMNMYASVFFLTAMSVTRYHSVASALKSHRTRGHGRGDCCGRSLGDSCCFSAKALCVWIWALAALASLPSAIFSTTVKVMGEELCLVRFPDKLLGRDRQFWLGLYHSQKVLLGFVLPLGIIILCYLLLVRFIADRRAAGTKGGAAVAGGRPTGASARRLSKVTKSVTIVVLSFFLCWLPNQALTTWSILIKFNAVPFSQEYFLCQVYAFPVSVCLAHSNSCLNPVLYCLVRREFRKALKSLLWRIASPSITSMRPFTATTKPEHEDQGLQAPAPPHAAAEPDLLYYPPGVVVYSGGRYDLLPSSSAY
Kind of test: competition with 100 pM [125I]-relaxin-3, COS-7 membranes with human GPCR135.

Test [2] deals with T2, human GPCR142 (human, UniProt Q8TDU9 1-374). Kind of test: competition with 100 pM [125I]-relaxin-3, COS-7 membranes with human GPCR142.
Test [3] concerns the target T2, human GPCR142. Kind of test: cell-based or functional assay.
For test [4], the target named is T1, human GPCR135. Kind of test: cell-based or functional assay.
Test [5] has as its target T3, human LGR8 (human, UniProt Q8WXD0 1-754).
T3 construct: whole, on cells; also called LGRB
Kind of test: competition with 100 pM [125I]-INSL3, live COS-7 cells expressing human LGR8; ND denotes no activity was detected.

Test [6] addresses T4, human LGR7 (human, UniProt Q9HBX9 1-757).
T4 construct: whole, on cells
T4 sequence (looked up): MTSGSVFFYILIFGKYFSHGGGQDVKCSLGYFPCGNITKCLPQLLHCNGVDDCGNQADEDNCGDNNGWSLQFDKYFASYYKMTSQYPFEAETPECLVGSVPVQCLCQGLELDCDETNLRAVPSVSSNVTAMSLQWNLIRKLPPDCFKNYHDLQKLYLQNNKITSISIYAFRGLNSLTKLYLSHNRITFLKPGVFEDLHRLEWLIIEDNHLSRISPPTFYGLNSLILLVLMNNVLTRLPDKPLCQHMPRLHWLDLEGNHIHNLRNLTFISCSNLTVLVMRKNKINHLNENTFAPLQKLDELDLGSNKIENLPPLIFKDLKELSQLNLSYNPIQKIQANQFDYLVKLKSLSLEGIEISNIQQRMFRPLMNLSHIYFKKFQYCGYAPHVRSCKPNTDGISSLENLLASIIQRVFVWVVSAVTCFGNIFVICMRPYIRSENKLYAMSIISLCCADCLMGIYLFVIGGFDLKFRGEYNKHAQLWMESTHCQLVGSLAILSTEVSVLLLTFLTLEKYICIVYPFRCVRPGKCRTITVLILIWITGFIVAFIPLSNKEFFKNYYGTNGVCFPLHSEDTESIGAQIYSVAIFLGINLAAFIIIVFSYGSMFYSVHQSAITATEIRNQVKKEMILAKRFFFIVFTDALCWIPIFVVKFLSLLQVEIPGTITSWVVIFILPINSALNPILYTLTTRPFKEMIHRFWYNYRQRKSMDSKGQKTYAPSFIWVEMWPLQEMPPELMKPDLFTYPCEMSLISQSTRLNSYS
Kind of test: competition with 100 pM [125I]-relaxin-3, live COS-7 cells expressing human LGR7; ND denotes no activity was detected.

Ends that are not written are not given here.

T2 sequence (Q8TDU9 whole entry L329S, form in doubt): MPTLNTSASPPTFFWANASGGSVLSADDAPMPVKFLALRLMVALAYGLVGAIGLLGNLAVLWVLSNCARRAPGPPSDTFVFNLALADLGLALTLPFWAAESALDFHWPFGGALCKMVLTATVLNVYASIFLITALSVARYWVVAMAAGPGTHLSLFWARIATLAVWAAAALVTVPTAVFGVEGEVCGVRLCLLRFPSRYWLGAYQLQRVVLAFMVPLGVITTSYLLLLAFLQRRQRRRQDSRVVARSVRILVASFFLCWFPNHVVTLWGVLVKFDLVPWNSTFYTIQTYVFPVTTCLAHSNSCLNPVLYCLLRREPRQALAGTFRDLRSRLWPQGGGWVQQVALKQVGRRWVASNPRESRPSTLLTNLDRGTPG
T3 sequence (Q8WXD0 whole entry): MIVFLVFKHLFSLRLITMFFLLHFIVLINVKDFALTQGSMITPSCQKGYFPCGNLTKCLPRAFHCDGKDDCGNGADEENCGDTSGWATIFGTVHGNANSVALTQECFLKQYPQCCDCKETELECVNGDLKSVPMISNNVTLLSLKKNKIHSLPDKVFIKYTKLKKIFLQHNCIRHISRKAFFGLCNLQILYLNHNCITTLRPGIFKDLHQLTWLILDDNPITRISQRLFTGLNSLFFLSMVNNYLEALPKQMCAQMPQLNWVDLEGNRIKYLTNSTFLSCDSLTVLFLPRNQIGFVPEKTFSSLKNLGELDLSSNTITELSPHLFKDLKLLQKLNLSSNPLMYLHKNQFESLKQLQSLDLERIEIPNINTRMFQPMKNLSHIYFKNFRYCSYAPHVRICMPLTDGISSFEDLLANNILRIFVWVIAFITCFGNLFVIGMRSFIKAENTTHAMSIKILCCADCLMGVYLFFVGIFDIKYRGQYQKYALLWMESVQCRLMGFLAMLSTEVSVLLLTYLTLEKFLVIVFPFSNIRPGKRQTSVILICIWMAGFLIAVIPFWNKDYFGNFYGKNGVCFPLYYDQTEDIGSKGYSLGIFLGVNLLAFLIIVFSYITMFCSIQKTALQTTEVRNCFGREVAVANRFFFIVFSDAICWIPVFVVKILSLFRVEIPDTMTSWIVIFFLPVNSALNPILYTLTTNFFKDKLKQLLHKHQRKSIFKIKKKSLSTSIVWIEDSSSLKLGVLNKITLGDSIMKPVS

B1: Relaxin-3/INSL4 (R3/I4) chimeric polypeptide (ligand, human)
chain 1: RAAPYGVRLCGREFIRAVIFTCGGSRW
chain 2: FDPFCCEVICDDGTSVKLC
modifications: disulfide (positions not given here)
notes: domain: A-chain; Two chains joined by disulfide bonds; FLAG tag removed
Consider B1, for which the IC50 in test [1] and in test [2] was above 1000 nM throughout. The “EC50, inhibition of forskolin stimulated β-galactosidase expression” value in test [3] and in test [4] was above 1000 nM each time. Further, the binding result is “no binding” in test [5] and “no binding (tested: 1 µM)” in test [6].
